Starred links: 1 amine or outer side, 2 acyl side, 3 side chain; linkers in the order of their positions; H or OH if unused. Non-standard residues stand in square brackets, D forms with d. Groups on a side chain read outwards from the residue. Primed or numbered codes have the meaning given here. No end group written: not given here. *: point of attachment. γGlu = O=C(O)[C@H](CCC(=O)[*:2])N[*:1]; Stearoyl = CCCCCCCCCCCCCCCCCC(=O)*; αMeF = C[C@](N)(Cc1ccccc1)C(=O)O; αMeK = C[C@](N)(CCCCN)C(=O)O; Lauroyl = CCCCCCCCCCCC(=O)*; αMeS = C[C@](N)(CO)C(=O)O; PEG2′ = not defined here; Aib = CC(C)(N)C(=O)O
T1: glucose-dependent insulinotropic peptide (gastric inhibitory polypeptide) receptor (GIPR) (human, UniProt P48546 22-466)
T1 sequence (looked up): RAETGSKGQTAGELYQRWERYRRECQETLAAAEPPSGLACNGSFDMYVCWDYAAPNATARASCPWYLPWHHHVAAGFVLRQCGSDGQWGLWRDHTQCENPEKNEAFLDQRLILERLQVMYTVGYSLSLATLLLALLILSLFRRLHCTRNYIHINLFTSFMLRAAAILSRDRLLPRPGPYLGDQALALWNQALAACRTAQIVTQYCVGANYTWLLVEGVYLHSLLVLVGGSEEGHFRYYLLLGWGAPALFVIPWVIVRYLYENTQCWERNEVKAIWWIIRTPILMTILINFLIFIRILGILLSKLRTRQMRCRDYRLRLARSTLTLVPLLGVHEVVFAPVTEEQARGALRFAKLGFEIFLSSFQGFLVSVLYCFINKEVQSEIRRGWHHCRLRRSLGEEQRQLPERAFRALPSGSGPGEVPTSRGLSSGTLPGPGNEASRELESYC


Legend:
Assay in all cases: cell-based or functional assay
[1] = molecular target: GLP-1 receptor (GLP-1R) (human, UniProt P43220 24-463)
[2] = molecular target: glucagon receptor (GCGR) (human, UniProt P47871 26-477)
glucagon receptor (GCGR), sequence (P47871 26-477): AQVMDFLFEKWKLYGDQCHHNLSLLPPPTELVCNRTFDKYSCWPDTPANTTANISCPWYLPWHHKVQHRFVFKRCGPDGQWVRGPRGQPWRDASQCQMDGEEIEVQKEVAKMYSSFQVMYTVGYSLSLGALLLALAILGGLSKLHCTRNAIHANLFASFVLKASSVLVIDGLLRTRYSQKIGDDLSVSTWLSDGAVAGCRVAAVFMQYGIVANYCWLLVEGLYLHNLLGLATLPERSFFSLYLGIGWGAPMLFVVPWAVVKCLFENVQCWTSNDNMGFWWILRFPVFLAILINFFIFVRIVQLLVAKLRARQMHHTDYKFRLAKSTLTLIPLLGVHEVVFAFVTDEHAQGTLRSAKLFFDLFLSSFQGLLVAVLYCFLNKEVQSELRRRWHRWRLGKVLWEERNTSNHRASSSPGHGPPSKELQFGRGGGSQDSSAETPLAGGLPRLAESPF

[3] = molecular target: T1, glucose-dependent insulinotropic …

| cAMP Mean pM GLP-1R [1] [pM] | cAMP Primary assay EC50 GLP-1R n1 [1] [nM] | cAMP Primary assay EC50 GLP-1R n2 [1] [nM] | cAMP Primary assay EC50 Gluc-R [2] [nM] | cAMP Primary assay EC50 Gluc-R (2nd) [2] [nM] | cAMP Primary assay EC50 GIP-R [3] [nM] | cAMP Primary assay EC50 GIP-R (2nd) [3] [nM] | Binder |
| --- | --- | --- | --- | --- | --- | --- | --- |
| 24900 | 25 | 24.9 | 25 | 24.9 | 25 | 24.9 | H[Aib]EK([PEG2′-PEG2′-γGlu-Stearoyl])S[αMeF]TSDV[αMeS]S[αMeF]LEGEAA[αMeK]E[αMeF]IA[αMeF]VV[αMeK]GG-NH2 [SEQ ID NO 125] |
| 18.2 | 0.015 | 0.021 | 28 | 28 | 28 | 28 | H[Aib]EGS[αMeF]TSDV[αMeS]S[αMeF]LEGEAAK([γGlu-Lauroyl])E[αMeF]IA[αMeF]VV[αMeK]GG-NH2 (N-terminus assumed; SMILES CCCCCCCCCCCC(=O)N[C@@H](CCC(=O)NCCCC[C@H](NC(=O)[C@H](C)NC(=O)[C@H](C)NC(=O)[C@H](CCC(=O)O)NC(=O)CNC(=O)[C@H](CCC(=O)O)NC(=O)[C@H](CC(C)C)NC(=O)[C@](C)(Cc1ccccc1)NC(=O)[C@H](CO)NC(=O)[C@](C)(CO)NC(=O)[C@@H](NC(=O)[C@H](CC(=O)O)NC(=O)[C@H](CO)NC(=O)[C@@H](NC(=O)[C@](C)(Cc1ccccc1)NC(=O)[C@H](CO)NC(=O)CNC(=O)[C@H](CCC(=O)O)NC(=O)C(C)(C)NC(=O)[C@@H](N)Cc1c[nH]cn1)[C@@H](C)O)C(C)C)C(=O)N[C@@H](CCC(=O)O)C(=O)N[C@@](C)(Cc1ccccc1)C(=O)N[C@H](C(=O)N[C@@H](C)C(=O)N[C@@](C)(Cc1ccccc1)C(=O)N[C@H](C(=O)N[C@H](C(=O)N[C@@](C)(CCCCN)C(=O)NCC(=O)NCC(N)=O)C(C)C)C(C)C)[C@@H](C)CC)C(=O)O) [SEQ ID NO 128] |
| 25100 | 25 | 25.1 | 25 | 25.1 | 25 | 25.1 | HK([PEG2′-PEG2′-γGlu-Stearoyl])EGS[αMeF]TSDV[αMeS]S[αMeF]LEGEAA[αMeK]E[αMeF]IA[αMeF]VV[αMeK]GG-NH2 [SEQ ID NO 127] |
| 25400 | 25 | 25.4 | 25 | 25.4 | 25 | 25.4 | H[Aib]K([PEG2′-PEG2′-γGlu-Stearoyl])GS[αMeF]TSDV[αMeS]S[αMeF]LEGEAA[αMeK]E[αMeF]IA[αMeF]VV[αMeK]GG-NH2 [SEQ ID NO 126] |
| 25100 | 25 | 25.1 | 25 | 25.1 | 25 | 25.1 | H[Aib]EGK([PEG2′-PEG2′-γGlu-Stearoyl])[αMeF]TSDV[αMeS]S[αMeF]LEGEAA[αMeK]E[αMeF]IA[αMeF]VV[αMeK]GG-NH2 [SEQ ID NO 124] |
